In the experiment the target is human γδ TCR (Vγ9Vδ2) on human γδ T cells (human). The experiment in a line: cell-based or functional assay.

Consider 1 molecule from patent US20250066477A1.

Chain of human γδ TCR (Vγ9Vδ2) on human γδ T cells (human) (main, as listed by the source): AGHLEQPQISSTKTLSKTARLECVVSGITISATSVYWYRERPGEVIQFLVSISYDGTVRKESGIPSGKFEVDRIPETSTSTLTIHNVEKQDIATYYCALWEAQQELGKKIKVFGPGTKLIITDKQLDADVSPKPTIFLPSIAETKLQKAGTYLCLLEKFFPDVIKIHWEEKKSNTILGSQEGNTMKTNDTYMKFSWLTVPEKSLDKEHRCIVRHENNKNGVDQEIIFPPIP

B1: 1D7v158×5T4 bispecific γδTCR×5T4 molecule (bispecific antibody, part only; not given: anti-5T4 VHH, Fc halves, not shown: a dimerising Fc or GST)
chain, part: EVQLLESGGGEVQPGGSLRLSCVASRGKISQYRMGWYRQAPGKQRELVAHISNTGDAAEYVAPVKGRFTISRDNAKNALYLQMNSLRAEDTAVYKCNTVEDILAWGQGTLVTVEP
For B1, the potency (EC50) of γδ T cell-mediated caspase-3/7 activation / cytotoxicity on A375 cells, against the molecule comprising 1D7v9 was found to be 2 fold.
